The text below walks through data of paper PMC5345856, “Suppressor of rid1 (SID1) shares common targets with RID1 on florigen genes to initiate floral transition in rice”.

First the molecules themselves.
T1: RID1 (Oryza sativa (rice), UniProt B1B534 1-475)
T1 sequence: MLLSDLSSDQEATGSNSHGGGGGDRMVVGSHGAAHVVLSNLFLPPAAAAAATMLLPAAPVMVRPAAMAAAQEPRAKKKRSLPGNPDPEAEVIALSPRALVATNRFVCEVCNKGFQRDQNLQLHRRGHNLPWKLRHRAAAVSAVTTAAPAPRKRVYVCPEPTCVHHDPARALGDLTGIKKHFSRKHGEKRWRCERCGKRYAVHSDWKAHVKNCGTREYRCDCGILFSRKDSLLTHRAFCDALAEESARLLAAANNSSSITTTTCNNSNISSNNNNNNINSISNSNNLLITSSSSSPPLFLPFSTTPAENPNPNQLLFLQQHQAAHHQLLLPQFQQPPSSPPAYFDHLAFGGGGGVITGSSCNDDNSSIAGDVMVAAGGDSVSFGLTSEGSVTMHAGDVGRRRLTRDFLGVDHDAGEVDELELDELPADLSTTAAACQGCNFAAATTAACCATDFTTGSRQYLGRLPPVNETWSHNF

B1: bio-Hd3a (dsDNA)
DNA 1: CTTATCTTGCCCGGACAAATCGAGCTAAGCAA
DNA 2: TTGCTTAGCTCGATTTGTCCGGGCAAGATAAG
B2: bio-Hd3a-M (dsDNA)
DNA 1: CTTATCTTGCCCGGATTAATCGAGCTAAGCAA
DNA 2: TTGCTTAGCTCGATTAATCCGGGCAAGATAAG
B3: bio-RFT1 (dsDNA)
DNA 1: ATAACGTTTGACCATTTGTCTTATTAAATATATATATAAA
DNA 2: TTTATATATATATTTAATAAGACAAATGGTCAAACGTTAT
B4: bio-RFT1-M (dsDNA)
DNA 1: ATAACGTTTGACCATTAATCTTATTAAATATATATATAAA
DNA 2: TTTATATATATATTTAATAAGATTAATGGTCAAACGTTAT

This data set deals with T1, RID1. As to the kind of experiment: EMSA; 10 uM ZnCl2; 10 mM Tris (pH not stated), 50 mM KCl, 10 uM ZnCl2, 1 mM DTT, 1 ug/ul poly(dI-dC), 0.1% BSA, 2.5% glycerol, 0.05% NP-40; 50 fmol probe; 30 min on ice; 6% native PAGE. The following applies: protein: recombinant; tags: His (pET-32a; vector Trx fusion not mentioned); label: 5' biotin; blunt. In general terms: A gel shift assay detects complexes by their altered migration in electrophoresis.
As for B1, the binding result was “binds”.
The value for B2 was “no binding”; that for B3 was “binds”; that for B4 was “no binding”.
